Biological target: T1, Full-length H-Ras (SNAPtag-(GAGS)2x-MBP-H-Ras-DoubleHisTag) (human, UniProt P01112 1-189, SNAP-Cell 430 dye on the SNAP-tag)
T1 construct: H-Ras GTPase, human, full length; loaded with GDP or GTP as the experiment says; Held on Ni beads by the C-terminal double His tag; The nucleotide state (GDP or GTP) is a condition of the assay; also called wild-type Ras; WT Ras; source: E. coli BL21(T1R), purified (Ni-NTA, amylose, gel filtration Superdex S200); not shown: SNAP-tag, N-terminal, kept; DoubleHisTag (10xHis-(GAGS)3x-6xHis), …
Test: recruitment of fluorescent effector to Ras-loaded beads, spinning disk confocal microscopy; two competing effectors, each with its own fluorophore, in equivalent amounts on the same Ras-loaded beads; 2 uM RasGRF GEF step input, 5 mM GTP; GAP-free or with NF1-GAP
Conditions: both partners purified

B1: RBD from the A-Raf kinase (SNAPtag-(GAGS)2x-MBP-ARafRBD-StrepII) (domain or fragment, UniProt P10398 19-91, looked up)
chain: GTVKVYLPNKQRTVVTVRDGMSVYDSLDKALKVRGLNQDCCVVYRLIKGRKTVTAWDTAIAPLDGEELIVEVL
modifications: SNAP-Surface 488 or SNAP-Surface 549 dye on the SNAP-tag
notes: source: E. coli BL21(T1R), purified (Streptactin, amylose, gel filtration Superdex S75); not shown: SNAP-tag, N-terminal, kept
With B1 the “output amplitude, fold lower than C-Raf RBD (GAP-free two-effector network)” value was 20 times lower.

Source: paper PMC4775219 (eLife, 2016)
